In patent publication US20060141529:

Assays:
[1] = system: Cortactin (endogenous, immunoprecipitated from PDGF-stimulated cells)
[2] = target: CRK (positive control substrate printed on the Human ProtoArray microarray) (UniProt P46108)
[3] = target: Shp1 (on Human ProtoArray microarray) (UniProt P29350)
Chain of Shp1 (on Human ProtoArray microarray) (P29350 whole entry): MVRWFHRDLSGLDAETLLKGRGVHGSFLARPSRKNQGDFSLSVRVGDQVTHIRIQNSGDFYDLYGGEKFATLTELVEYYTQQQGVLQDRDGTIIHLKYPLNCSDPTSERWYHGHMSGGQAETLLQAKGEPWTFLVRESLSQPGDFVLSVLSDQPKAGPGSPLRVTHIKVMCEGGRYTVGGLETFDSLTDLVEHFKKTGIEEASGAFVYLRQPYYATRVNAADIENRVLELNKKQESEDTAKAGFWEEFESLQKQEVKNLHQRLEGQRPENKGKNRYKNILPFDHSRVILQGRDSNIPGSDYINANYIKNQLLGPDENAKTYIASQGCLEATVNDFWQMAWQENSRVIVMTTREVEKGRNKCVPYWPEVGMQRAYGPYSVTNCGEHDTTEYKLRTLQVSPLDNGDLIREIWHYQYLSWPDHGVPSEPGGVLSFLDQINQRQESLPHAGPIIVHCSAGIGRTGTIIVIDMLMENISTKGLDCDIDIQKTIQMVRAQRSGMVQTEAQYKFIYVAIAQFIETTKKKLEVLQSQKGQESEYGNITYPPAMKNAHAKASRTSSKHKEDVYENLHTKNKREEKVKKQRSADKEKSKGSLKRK

Chain of CRK (positive control substrate printed on the Human ProtoArray microarray) (P46108 whole entry): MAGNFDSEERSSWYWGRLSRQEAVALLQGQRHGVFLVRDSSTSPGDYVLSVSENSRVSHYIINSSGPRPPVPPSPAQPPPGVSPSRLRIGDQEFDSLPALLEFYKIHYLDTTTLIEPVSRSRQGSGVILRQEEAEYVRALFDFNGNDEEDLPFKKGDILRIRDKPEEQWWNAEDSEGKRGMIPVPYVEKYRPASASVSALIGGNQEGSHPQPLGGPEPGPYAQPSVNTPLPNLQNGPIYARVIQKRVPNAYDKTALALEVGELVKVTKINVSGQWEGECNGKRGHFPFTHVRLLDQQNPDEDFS

Row | Substance | PDGF-stimulated tyrosine phosphorylation of Cortactin (immunoprecipitation and anti-phosphotyrosine immunoblot) [1] | phosphorylation on Human ProtoArray microarray (radiolabeled ATP) [2] | phosphorylation on Human ProtoArray microarray [3]
1 | ABL (endogenous, in wild-type cell line) | PDGF stimulates phosphorylation of Cortactin 3-fold in wild type cells but not in abl-/-, arg-/-, and abl-/-arg-/- |  | 
2 | ARG (endogenous, in wild-type cell line) | PDGF stimulates phosphorylation of Cortactin 3-fold in wild type cells but not in abl-/-, arg-/-, and abl-/-arg-/- |  | 
3 | ARG kinase (protein tyrosine kinase ARG used to probe the Human ProtoArray microarrays) |  | This kinase phosphorylated the control substrate CRK in every subarray | one of the proteins proven to be a substrate for ARG on a Human ProtoArray microarray, Shp1
